The data set in a line: yeast display, Sf9 membrane polyspecificity reagent, FACS + sequencing; frameworks hold sequencing errors. In outline:
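Sorting gates, low and high (top ~1%), were placed on anti-HA fluorescence to track expression and on streptavidin fluorescence to track reagent binding. A clone's polyreactivity label is taken from the gate it came out of. The reagent was 10% biotinylated, detergent-solubilized Sf9 membrane, applied for 1 hour at 4 °C to galactose-induced yeast display cells.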
For “QVQLVESGGGLVQAGGRLRLSCAASGFTFVRNTMGWYRQAPGKDRELVAAISRSGGSTYYADSVKGRFTISRDNAKNTVYLQMNSLKPEDTAVYYCNAYRYLHYDWGQGTQVTVSS”, the “polyreactivity (PSR sort gate)” value is recorded as “high polyreactivity”. For the sequence “QVQLVESGGGLVQAGGRLRLSCAASGFTIPYKAMGWYRQAPGKERELVAAISRSGTRTYYADSVKGRFTISRDNAKNTLYIQMNSLKPEDTAVYYCAKDTIGGASPHYYWGKGTQVTVSS”, the “polyreactivity (PSR sort gate)” value is “high polyreactivity”. Under “QVQLVESGGGLVQAGGRLRLSCAASGITFTYYSMGGYRQAPGKERELVAAITDDGNTNYADSVKGRFTISRDNAKNTVYLQMNSLIPEDTAVYYCAADLLGIPDYEYWGQGTQVTVSS” stands “low polyreactivity”. To “QVQLVESGGGLVQAGGRLRLSCAASGNTFDYYAMGWYRPAPGKERELVAAITRGGSTNYADSVKGRFTISRDNAKNTVYLQMNSLKPEDTAVYYCAAEQRAPRFADYDYWGQGTQVTVSS” belongs “low polyreactivity”; to “QVQLVESGGGLVQAGGRLRLSCAASGRIFGYYAIGWYRQAPGKERELVARISRGGSTYYADSVKGRFTISRDNAKNTVYLQMNSLKPEETAVYSCAATRSGYTSYTDDSGGQGTQVTVSS”, “high polyreactivity”; to “QVQLVESGGGLVQAGGRLRLSCAASGRIFKWYPMGLYRQAPGKERELVAAITSGGSTYYADSVKGRFTISRDNAKNTVYLQMNSLNPEDTAVYYCAAPVYLYGTVGRGDYWGQGTQVTVSS”, “high polyreactivity”. For “QVQLVESGGGLVQAGGRLRLSCAASGRIFRWNPMGWYRPAPGIERELVAAISASGGRTNYADSVKGRFTISRDNAKNTVYLQMKSLKPEDTAVYYCAAGPVYYYVPIGYDYWGQGTQVTVSS”, the “polyreactivity (PSR sort gate)” value is listed as “high polyreactivity”. “QVQLVESGGGLVQAGGRLRLSCAASGRIFSDYAMGWYRQAPGKERELVAVITRGGDNTHYADSVKGRFSISRDNAKNTVYLQMNSLKAEDTAVYYCAAGFVYFRLRRYFWRDYCGQGTQVTVSS”: the “polyreactivity (PSR sort gate)” value is given as “low polyreactivity”. To “QVQLVESGGGLVQAGGRLRLSCAASGRIFSYNAMGWYRQAPGKERELVAGITSGGRTYYADSVKGRFTISRDNAKNTVYLLIYSLKPEDTAVYYCGARYVPARSGYYYWGQGTQVTVSS” belongs “high polyreactivity”; to “QVQLVESGGGLVQAGGRLRLSCAASGRIFYWNVMGWYRPAPGKERELVAAISSSGASTSYADSVKGRFTISRDNAKNTVYLQMNSLKPEDTAVYYCAARTRRNYRQYNYWGQGTQVTVSS”, “high polyreactivity”. As for “QVQLVESGGGLVQAGGRLRLSCAASGRILRWYTMGWYRQAPGKERELVAAITSRGGSTYYADSVKGRFTISRDNAKNTVYLQMNSLKPEDTAVYYCAAVSWYTRLTYYYWGQGTQVTVSS”, the “polyreactivity (PSR sort gate)” value is given as “high polyreactivity”. Regarding “QVQLVESGGGLVQAGGRLRLSCAASGRILYLNAMGWYRQAPGKERELVAAITKSGGSTYYADSVKGRFTISRDNAKNTVYLQMNSLKPEDTAVYYCAAEWVYYDYWQRFLYIDYDYWGQGTHVTVSS”, the “polyreactivity (PSR sort gate)” value was “high polyreactivity”. On to “QVQLVESGGGLVQAGGRLRLSCAASGRTCGYYTMGWYRQAPGKERELVATIRWSGGSTYADSVKGRFTISRDNAKNTVYLQMNSLKPEDTAVYYCAARNRIKWGQGTQVTVSS”, for which the “polyreactivity (PSR sort gate)” value was “high polyreactivity”. Under “QVQLVESGGGLVQAGGRLRLSCAASGRTFARYDRGWYRQAPGKELVLVAGMNGDGGSTNYADSVKGRFTISRDNAKNSVYLQMNSLKPEDTAVYYCNVVQEDRTLHVSIKQLSDHWGQGTQVTVSS” stands “low polyreactivity”; under “QVQLVESGGGLVQAGGRLRLSCAASGRTFATNTMGWYIQAPGKEREFVAAISRGGVSTSYADSVKGRFTISRDNAKNTVYLQMNSLKPEDTAVYYCAANHYGFNRNHRHTYVYWGQGTQVTVSS”, “high polyreactivity”; under “QVQLVESGGGLVQAGGRLRLSCAASGRTFAYYAMGWSRQAPGKERELVAAITRGGSTYYADSVKGRFTISRDNAKNTVYLQMNSLKPEDTAVYYCAAATSPYQDDYWGQGTQVTVSS”, “low polyreactivity”.

Turning to “QVQLVESGGGLVQAGGRLRLSCAASGRTFGYNFMGWYRQAPGKERELVAAISSSGGSTYYADSVKGRFTISRDNGMNTVYLQMNSLKREDTAVYYCNARRGRASGMDYWGQGTQVTVSS”, the “polyreactivity (PSR sort gate)” value is reported as “high polyreactivity”. Under “QVQLVESGGGLVQAGGRLRLSCAASGRTFKDYAMGWYRQAPGKERELVAGINGSGGSTYYADSVKGRFTISRDNAKNTVYLQMNSLKPEDTAVYYCNADFGYWWDGRRYDYWGQGTQVTVSS” stands “low polyreactivity”.

Take “QVQLVESGGGLVQAGGRLRLSCAASGRTFKLYAMGWYRQAPRKERELVAAITESGGSTYYADTVKGRFTISRDNAKNTVYLQMNILKPEDTAVDYCARVLQYQKRNDYEYWGQGTQVTVSS”: the “polyreactivity (PSR sort gate)” value was “low polyreactivity”. Under “QVQLVESGGGLVQAGGRLRLSCAASGRTFLRYAMGWYRQAPGKERELVAAISVSGGNTYYADSVKGRFTISRDNAKNTVYLQMNSLKPEDTAVYYCNKARLAAVFSYPYGYWGQGTQVTVSS” stands “low polyreactivity”; under “QVQLVESGGGLVQAGGRLRLSCAASGRTFNVNVMGWYRQAPGKERELVAAIRYTGGSTYADSVKGRFTISRDNAKNTVYLQMNSLKPEDTALYYCNADTFFPFDHGMDYWGQGTQVTVSS”, “low polyreactivity”; under “QVQLVESGGGLVQAGGRLRLSCAASGRTFPIYAMGWYRQAPGKERELVAAITRGGRTNYADSVKGRFTISRDNAKNTVYLQMNSLKPEDTAVYYCAARTYGTYLYAEYDYWGQGTQVTVSS”, “high polyreactivity”.

Regarding “QVQLVESGGGLVQAGGRLRLSCAASGRTFRPYALGWYRQPPVKERELVAAIDSSGTSTYYADSVKGRFTISRDNAKNTVYLQMNSLKPEDTAVYDCAQASPDHWYSRYDYWGQGTQVTVSS”, the “polyreactivity (PSR sort gate)” value is recorded as “low polyreactivity”. As to “QVQLVESGGGLVQAGGRLRLSCAASGRTFRRYAMGWYRPAPGTERELVAAISWSGGSTYYADSVKGRFTISRDNAKNSVYLQMNSLKPEDTAVYYCGAETRYGYGYWGQGTQVTVSS”, the “polyreactivity (PSR sort gate)” value was “high polyreactivity”. For “QVQLVESGGGLVQAGGRLRLSCAASGSIFASYAMGWYRQAPGKERELVAAITSDGNTYYADSVKGRFTISRDNAKNTVYLPMNSLIPEDTAVYYCAADRYSTYPYAKGTEFYYWGQGTQVTVSS”, the “polyreactivity (PSR sort gate)” value is “low polyreactivity”. To “QVQLVESGGGLVQAGGRLRLSCAASGSIFDLNAMGWYRQAPGKERELVAAISSGGGTYYADSVKGRFTISRDNAKNTVYLQMNSLKPEDTAVYYCNRVTRWTYNYWGQGTQVTVSS” belongs “high polyreactivity”; to “QVQLVESGGGLVQAGGRLRLSCAASGSIFRYYAMGWYRQATGKERELVAAITRGDSTNYADSVKGRFTISRDNAKNTVYLQMNSLKPEDTAVYYCAASRYHGWYVKMGYWGQGTQVTVSS”, “high polyreactivity”. Regarding “QVQLVESGGGLVQAGGRLRLSCAASGSIFTPNAMGWYRQAPGKEMELVAAISSSSDRTYYADSVKGRFTISRDNAMITVYLQMNSLNPEDTAVYYCAAETNTWYLFDFWGQGTQVTVSS”, the “polyreactivity (PSR sort gate)” value was “high polyreactivity”. In the case of “QVQLVESGGGLVQAGGRLRLSCAASGSIFVGYAMGWYRQAPGKERELVAAISTRGGSTYYAHSVKGRFTISRDNAKNTVYLQMNSLKPEDTAVYYSAADYLDSTYGYVYGWDDYWGQGTQVTVST”, the “polyreactivity (PSR sort gate)” value was “low polyreactivity”. To “QVQLVESGGGLVQAGGRLRLSCAASGSIFYGYDMGWYRQAPGKERELVAAITIGGGTTYYADSVKGRFTISRDNAKNTVYLQMNSLKPEDTAVYYCAKTYARPTRVQKYSGEGGYWGQGTQVTVSS” belongs “high polyreactivity”; to “QVQLVESGGGLVQAGGRLRLSCAASGSISGYYAMGWYRQAPGKERELVASIRYTGARTYYADSVKGRFTISRDNAKNNVYLQMNSLKPEDTAVYYCAADVKRDRVWGGDYWGQGTQVTVSS”, “low polyreactivity”; to “QVQLVESGGGLVQAGGRLRLSCAASGSISVTKAMGWYRQAPGTERELVAAISGSGGSTYADSVKGRFTISRDNAKNTVYLQMNSLKPVDTAVYYCDRDRYYTREWYWYRHDHWGQGTQVTVSS”, “low polyreactivity”. Regarding “QVQLVESGGGLVQAGGRLRLSCAASGSISWVYAMGWYRQAPGTERELVADITDSGDSTYYADSVKGRFTISRDNAKNTVYLQMHSLKPEDTAVYYSAAPGSRHYYIYWPYNYWGQGTQVTVSS”, the “polyreactivity (PSR sort gate)” value is on record as “low polyreactivity”. Under “QVQLVESGGGLVQAGGRLRLSCAASGSTFAGNAMGWYRQAPGKERELVAAIDSSTGSTYYADSVKGRFTISRDNAKNTVYLQMNSLKAEDTAVYYCNKTSFLVKLDYWGQGTQVTVSS” stands “low polyreactivity”; under “QVQLVESGGGLVQAGGRLRLSCAASGSTFAINAMGWYRQAPGKERELVAAITWSGGSTYYADSVKGRFTISRDNAKNTVYLQMNSLKPEDTAVYYCNAKSYRHLLYIPYKYNYWGQGTQVTVSS”, “high polyreactivity”. As to “QVQLVESGGGLVQAGGRLRLSCAASGSTFGYYAMGWNRQAPGKERELVAAISSRDGSTFYADSVKGRFTISRDNAKNTVFLQMNSLKPDDTAVYYCAKVFFHTPIVPEYDYCGQGTQVTVSS”, the “polyreactivity (PSR sort gate)” value is “low polyreactivity”. Consider “QVQLVESGGGLVQAGGRLRLSCAASGSTFKAYAMGWYRQAPGKERELVAAISSGGSRTYYADSVKGRFTISRDNAKITVYLQMHRLKPEDIEVYYCAARKADTVFKFEYWGQGTLVTVSS”, for which the “polyreactivity (PSR sort gate)” value is listed as “high polyreactivity”. Under “QVQLVESGGGLVQAGGRLRLSCAASGSTFKRYVMRLYRQAPGKERELVAAITWSGTRTYYADSVKGRFTISRDNAKNTVYLQMNSLKPEDTAVYYSAAVADRYPYSGYNYYSWGQGTQVTVSS” stands “high polyreactivity”; under “QVQLVESGGGLVQAGGRLRLSCAASGSTFRYYALGWYRQAPGKERELVAVISSTGSRTNYADSVKGRFTISRDNAKNTVYLQMNSLKPEHTAVYYCAADTTRRAPGYYYWGQGTQETVSS”, “high polyreactivity”; under “QVQLVESGGGLVQAGGRLRLSCAASGSTFTHYAMGWYRQAPGKERELVAAISSGGSTYYADSVKGRFTISRDNAKNTVYLQMNSLKPEDTAVYYCAADYDWHDWWYPHDYWGQGTQVTVSS”, “low polyreactivity”.

As for “QVQLVESGGGLVQAGGRLRLSCAASGSTFWLNAMGWSRQATGKERELFADSSRSGGSTYYADSVKGRFTISRDNAKNTVYLQMNSLKPEDTAVYYCAADSWPDQFTVYPGGDYWGQGTQVTVSS”, the “polyreactivity (PSR sort gate)” value is “low polyreactivity”.

The values above are taken from the nanobody polyreactivity screen of Harvey et al. (2022).
